# From IntAct's records for PubMed 16401726
# B1: UV excision repair protein RAD23 (Saccharomyces cerevisiae), P32628 (parent)
# chain: MVSLTFKNFKKEKVPLDLEPSNTILETKTKLAQSISCEESQIKLIYSGKVLQDSKTVSECGLKDGDQVVFMVSQKKSTKTKVTEPPIAPESATTPGRENSTEASPSTDASAAPAATAPEGSQPQEEQTATTERTESASTPGFVVGTERNETIERIMEMGYQREEVERALRAAFNNPDRAVEYLLMGIPENLRQPEPQQQTAAAAEQPSTAATTAEQPAEDDLFAQAAQGGNASSGALGTTGGATDAAQGGPPGSIGLTVEDLLSLRQVVSGNPEALAPLLENISARYPQLREHIMANPEVFVSMLLEAVGDNMQDVMEGADDMVEGEDIEVTGEAAAAGLGQGEGEGSFQVDYTPEDDQAISRLCELGFERDLVIQVYFACDKNEEAAANILFSDHAD
# partner: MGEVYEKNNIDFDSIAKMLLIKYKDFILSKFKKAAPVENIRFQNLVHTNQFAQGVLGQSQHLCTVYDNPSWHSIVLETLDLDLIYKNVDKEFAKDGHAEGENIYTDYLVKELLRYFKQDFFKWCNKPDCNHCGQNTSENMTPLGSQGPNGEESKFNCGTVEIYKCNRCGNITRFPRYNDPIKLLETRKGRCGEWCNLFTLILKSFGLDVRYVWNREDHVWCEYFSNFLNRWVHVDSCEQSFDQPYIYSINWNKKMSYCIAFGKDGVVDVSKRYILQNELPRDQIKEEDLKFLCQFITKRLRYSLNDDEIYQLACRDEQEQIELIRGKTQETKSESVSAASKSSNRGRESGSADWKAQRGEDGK
# B2: "Peptide-N(4)-(N-acetyl-beta-glucosaminyl)asparagine amidase" (Saccharomyces cerevisiae), Q02890 (parent)
# chain: B1 partner
# partner: B1 chain
# B3: UV excision repair protein RAD23 (Saccharomyces cerevisiae), P32628 (parent)
# chain: B1 chain
# partner: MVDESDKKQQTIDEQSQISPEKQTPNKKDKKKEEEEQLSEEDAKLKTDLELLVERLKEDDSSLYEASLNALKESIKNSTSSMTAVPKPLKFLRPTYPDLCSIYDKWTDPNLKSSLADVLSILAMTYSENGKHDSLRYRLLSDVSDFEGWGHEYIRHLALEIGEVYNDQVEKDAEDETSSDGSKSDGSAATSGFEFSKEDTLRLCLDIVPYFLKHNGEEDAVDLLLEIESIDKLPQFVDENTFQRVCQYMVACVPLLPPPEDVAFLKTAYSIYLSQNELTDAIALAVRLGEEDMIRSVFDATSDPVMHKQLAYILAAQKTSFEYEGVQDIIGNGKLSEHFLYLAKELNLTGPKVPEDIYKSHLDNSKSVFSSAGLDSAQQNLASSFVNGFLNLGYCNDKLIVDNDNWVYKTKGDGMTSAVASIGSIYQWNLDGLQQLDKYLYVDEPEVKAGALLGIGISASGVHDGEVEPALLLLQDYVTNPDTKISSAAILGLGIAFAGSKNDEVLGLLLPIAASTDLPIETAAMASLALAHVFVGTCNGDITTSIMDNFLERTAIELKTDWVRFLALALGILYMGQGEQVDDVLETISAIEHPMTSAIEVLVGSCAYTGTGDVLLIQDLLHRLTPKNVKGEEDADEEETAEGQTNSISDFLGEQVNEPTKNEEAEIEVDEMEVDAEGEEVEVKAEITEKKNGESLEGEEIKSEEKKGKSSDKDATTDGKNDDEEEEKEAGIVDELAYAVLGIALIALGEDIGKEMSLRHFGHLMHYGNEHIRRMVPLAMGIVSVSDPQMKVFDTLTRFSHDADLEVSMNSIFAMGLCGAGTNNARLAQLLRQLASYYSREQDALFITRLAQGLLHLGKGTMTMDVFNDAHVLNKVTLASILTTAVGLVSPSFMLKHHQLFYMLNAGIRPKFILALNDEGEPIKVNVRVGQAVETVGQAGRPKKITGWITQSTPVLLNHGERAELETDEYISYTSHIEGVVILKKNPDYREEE
# B4: UV excision repair protein RAD23 (Saccharomyces cerevisiae), P32628 (parent)
# chain: B1 chain
# partner: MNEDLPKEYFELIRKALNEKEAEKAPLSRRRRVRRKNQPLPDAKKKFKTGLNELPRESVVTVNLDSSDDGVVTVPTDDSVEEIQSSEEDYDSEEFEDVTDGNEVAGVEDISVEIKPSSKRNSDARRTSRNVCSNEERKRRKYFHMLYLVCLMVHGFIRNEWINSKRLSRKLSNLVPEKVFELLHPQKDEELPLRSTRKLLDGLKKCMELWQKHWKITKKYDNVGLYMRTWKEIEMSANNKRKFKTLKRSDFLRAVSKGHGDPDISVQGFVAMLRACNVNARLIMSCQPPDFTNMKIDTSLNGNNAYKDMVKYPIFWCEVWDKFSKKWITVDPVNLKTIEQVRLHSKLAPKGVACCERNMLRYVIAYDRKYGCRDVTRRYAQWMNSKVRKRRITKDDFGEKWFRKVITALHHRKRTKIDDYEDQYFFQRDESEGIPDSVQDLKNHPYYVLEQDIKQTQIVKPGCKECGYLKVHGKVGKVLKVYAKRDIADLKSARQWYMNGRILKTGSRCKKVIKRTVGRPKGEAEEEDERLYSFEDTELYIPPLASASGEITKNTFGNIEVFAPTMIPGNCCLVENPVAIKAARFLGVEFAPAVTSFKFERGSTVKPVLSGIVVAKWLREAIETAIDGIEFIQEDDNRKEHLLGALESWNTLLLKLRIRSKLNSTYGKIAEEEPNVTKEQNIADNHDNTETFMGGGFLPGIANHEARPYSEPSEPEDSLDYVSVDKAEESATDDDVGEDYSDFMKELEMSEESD
# B5: UV excision repair protein RAD23 (Saccharomyces cerevisiae), P32628 (parent)
# chain: B1 chain
# partner: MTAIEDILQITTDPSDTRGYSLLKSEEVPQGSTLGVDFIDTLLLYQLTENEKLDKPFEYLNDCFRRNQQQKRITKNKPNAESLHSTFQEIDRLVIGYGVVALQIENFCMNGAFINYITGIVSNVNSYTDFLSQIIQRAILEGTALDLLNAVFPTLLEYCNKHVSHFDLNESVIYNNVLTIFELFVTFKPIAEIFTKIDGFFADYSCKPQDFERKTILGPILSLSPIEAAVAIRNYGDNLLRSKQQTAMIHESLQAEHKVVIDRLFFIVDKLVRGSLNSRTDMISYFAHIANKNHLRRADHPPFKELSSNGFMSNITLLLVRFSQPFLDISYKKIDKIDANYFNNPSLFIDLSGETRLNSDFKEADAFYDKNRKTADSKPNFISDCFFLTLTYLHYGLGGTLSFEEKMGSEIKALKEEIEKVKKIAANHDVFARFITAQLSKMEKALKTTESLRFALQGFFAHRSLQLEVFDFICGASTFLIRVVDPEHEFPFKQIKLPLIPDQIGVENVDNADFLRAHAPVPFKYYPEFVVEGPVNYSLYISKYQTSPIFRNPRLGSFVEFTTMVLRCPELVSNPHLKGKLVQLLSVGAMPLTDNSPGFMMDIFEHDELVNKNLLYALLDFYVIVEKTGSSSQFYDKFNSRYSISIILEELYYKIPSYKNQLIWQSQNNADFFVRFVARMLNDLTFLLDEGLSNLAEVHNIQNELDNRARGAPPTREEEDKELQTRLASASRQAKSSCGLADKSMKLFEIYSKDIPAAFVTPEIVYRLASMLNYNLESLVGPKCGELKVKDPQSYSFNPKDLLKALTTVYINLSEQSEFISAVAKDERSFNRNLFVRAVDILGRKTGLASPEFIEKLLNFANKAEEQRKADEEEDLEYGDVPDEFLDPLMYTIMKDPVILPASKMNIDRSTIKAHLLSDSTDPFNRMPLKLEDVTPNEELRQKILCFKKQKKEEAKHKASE
# Variants of: B1
# Settings: with png1_yeast PNG1, Q02890
row,Variant,effect of a mutation on the interaction
1,MVSLTFKNFKKEKVPLDLEPSNTILETKTKLAQSISCEESQIKLIYSGKVLQDSKTVSECGLKDGDQVVFMVSQKKSTKTKVTEPPIAPESATTPGRENSTEASPSTDASAAPAATAPEGSQPQEEQTATTERTESASTPGFVVGTERNETIERIMEMGYQREEVERALRAAFNNPDRAVEYALMGIPENLRQPEPQQQTAAAAEQPSTAATTAEQPAEDDLFAQAAQGGNASSGALGTTGGATDAAQGGPPGSIGLTVEDLLSLRQVVSGNPEALAPLLENISARYPQLREHIMANPEVFVSMLLEAVGDNMQDVMEGADDMVEGEDIEVTGEAAAAGLGQGEGEGSFQVDYTPEDDQAISRLCELGFERDLVIQVYFACDKNEEAAANIAFSDHAD [L183A;L392A],with no effect
2,MVSLTFKNFKKEKVPLDLEPSNTILETKTKLAQSISCEESQIKLIYSGKVLQDSKTVSECGLKDGDQVVFMVSQKKSTKTKVTEPPIAPESATTPGRENSTEASPSTDASAAPAATAPEGSQPQEEQTATTERTESASTPGFVVGTERNETIERIMEMGYQREEVERALRAAFNNPDRAVEYLLMGIPENLRQPEPQQQTAAAAEQPSTAATTAEQPAEDDLFAQAAQGGNASSGALGTTGGATDAAQGGPPGSIGLTVEDLLSLRQVVSGNPEAQAPLLENISARYPQLREHIMANPEVFVSMLLEAVGDNMQDVMEGADDMVEGEDIEVTGEAAAAGLGQGEGEGSFQVDYTPEDDQAISRLCELGFERDLVIQVYFACDKNEEAAANILFSDHAD [L276Q],disrupting interaction strength

# Variants of: B2
# Settings: with rad23_yeast RAD23, P32628
row,Variant,effect of a mutation on the interaction
1,MGEVYEKNNIDFDSIAKMLLIKYKDFILSKFKKAAPVENIRFQNLVHTNQFAQGVLGQSQHLCTVYDNPSWHSIVLETLDLDLIYKNVDKEFAKDGHAEGENIYTDYLVKELLRYFKQDFFKWCNKPDCNHCGQNTSENMTPLGSQGPNGEESKFNCGTVEIYKCNRCGNITRFPRYNDPIKLLETRKGRCGEWCNLFTLILKSFGLDVRYVWNREDYVWCEYFSNFLNRWVHVDSCEQSFDQPYIYSINWNKKMSYCIAFGKDGVVDVSKRYILQNELPRDQIKEEDLKFLCQFITKRLRYSLNDDEIYQLACRDEQEQIELIRGKTQETKSESVSAASKSSNRGRESGSADWKAQRGEDGK [H218Y],with no effect

# Variants of: B3
# Settings: with rpn1_yeast RPN1, P38764
row,Variant,effect of a mutation on the interaction
1,MVSLTFKNFKKEKVPLDLEPSNTILETKTKLAQSISCEESQIKLIYSGKVLQDSKTVSECGLKDGDQVVFMVSQKKSTKTKVTEPPIAPESATTPGRENSTEASPSTDASAAPAATAPEGSQPQEEQTATTERTESASTPGFVVGTERNETIERIMEMGYQREEVERALRAAFNNPDRAVEYALMGIPENLRQPEPQQQTAAAAEQPSTAATTAEQPAEDDLFAQAAQGGNASSGALGTTGGATDAAQGGPPGSIGLTVEDLLSLRQVVSGNPEALAPLLENISARYPQLREHIMANPEVFVSMLLEAVGDNMQDVMEGADDMVEGEDIEVTGEAAAAGLGQGEGEGSFQVDYTPEDDQAISRLCELGFERDLVIQVYFACDKNEEAAANIAFSDHAD [L183A;L392A],with no effect
2,MVSLTFKNFKKEKVPLDLEPSNTILETKTKLAQSISCEESQIKLIYSGKVLQDSKTVSECGLKDGDQVVFMVSQKKSTKTKVTEPPIAPESATTPGRENSTEASPSTDASAAPAATAPEGSQPQEEQTATTERTESASTPGFVVGTERNETIERIMEMGYQREEVERALRAAFNNPDRAVEYLLMGIPENLRQPEPQQQTAAAAEQPSTAATTAEQPAEDDLFAQAAQGGNASSGALGTTGGATDAAQGGPPGSIGLTVEDLLSLRQVVSGNPEAQAPLLENISARYPQLREHIMANPEVFVSMLLEAVGDNMQDVMEGADDMVEGEDIEVTGEAAAAGLGQGEGEGSFQVDYTPEDDQAISRLCELGFERDLVIQVYFACDKNEEAAANILFSDHAD [L276Q],with no effect

# Variants of: B4
# Settings: with rad4_yeast RAD4, P14736
row,Variant,effect of a mutation on the interaction
1,MVSLTFKNFKKEKVPLDLEPSNTILETKTKLAQSISCEESQIKLIYSGKVLQDSKTVSECGLKDGDQVVFMVSQKKSTKTKVTEPPIAPESATTPGRENSTEASPSTDASAAPAATAPEGSQPQEEQTATTERTESASTPGFVVGTERNETIERIMEMGYQREEVERALRAAFNNPDRAVEYLLMGIPENLRQPEPQQQTAAAAEQPSTAATTAEQPAEDDLFAQAAQGGNASSGALGTTGGATDAAQGGPPGSIGLTVEDLLSLRQVVSGNPEAQAPLLENISARYPQLREHIMANPEVFVSMLLEAVGDNMQDVMEGADDMVEGEDIEVTGEAAAAGLGQGEGEGSFQVDYTPEDDQAISRLCELGFERDLVIQVYFACDKNEEAAANILFSDHAD [L276Q],with no effect

# Variants of: B5
# Settings: with ufd2_yeast UFD2, P54860
row,Variant,effect of a mutation on the interaction
1,MVSLTFKNFKKEKVPLDLEPSNTILETKTKLAQSISCEESQIKLIYSGKVLQDSKTVSECGLKDGDQVVFMVSQKKSTKTKVTEPPIAPESATTPGRENSTEASPSTDASAAPAATAPEGSQPQEEQTATTERTESASTPGFVVGTERNETIERIMEMGYQREEVERALRAAFNNPDRAVEYLLMGIPENLRQPEPQQQTAAAAEQPSTAATTAEQPAEDDLFAQAAQGGNASSGALGTTGGATDAAQGGPPGSIGLTVEDLLSLRQVVSGNPEAQAPLLENISARYPQLREHIMANPEVFVSMLLEAVGDNMQDVMEGADDMVEGEDIEVTGEAAAAGLGQGEGEGSFQVDYTPEDDQAISRLCELGFERDLVIQVYFACDKNEEAAANILFSDHAD [L276Q],with no effect
